In article PMC3255974:

Assay: parallel wall flow chamber, 293T α4β7 transfectants
Settings: glycan lost; control: wild type

B1: integrin β7 subunit: N260A (protein)
parent chain: MVALPMVLVLLLVLSRGESELDAKIPSTGDATEWRNPHLSMLGSCQPAPSCQKCILSHPSCAWCKQLNFTASGEAEARRCARREELLARGCPLEELEEPRGQQEVLQDQPLSQGARGEGATQLAPQRVRVTLRPGEPQQLQVRFLRAEGYPVDLYYLMDLSYSMKDDLERVRQLGHALLVRLQEVTHSVRIGFGSFVDKTVLPFVSTVPSKLRHPCPTRLERCQSPFSFHHVLSLTGDAQAFEREVGRQSVSGNLDSPEGGFDAILQAALCQEQIGWRNVSRLLVFTSDDTFHTAGDGKLGGIFMPSDGHCHLDSNGLYSRSTEFDYPSVGQVAQALSAANIQPIFAVTSAALPVYQELSKLIPKSAVGELSEDSSNVVQLIMDAYNSLSSTVTLEHSSLPPGVHISYESQCEGPEKREGKAEDRGQCNHVRINQTVTFWVSLQATHCLPEPHLLRLRALGFSEELIVELHTLCDCNCSDTQPQAPHCSDGQGHLQCGVCSCAPGRLGRLCECSVAELSSPDLESGCRAPNGTGPLCSGKGHCQCGRCSCSGQSSGHLCECDDASCERHEGILCGGFGRCQCGVCHCHANRTGRACECSGDMDSCISPEGGLCSGHGRCKCNRCQCLDGYYGALCDQCPGCKTPCERHRDCAECGAFRTGPLATNCSTACAHTNVTLALAPILDDGWCKERTLDNQLFFFLVEDDARGTVVLRVRPQEKGADHTQAIVLGCVGGIVAVGLGLVLAYRLSVEIYDRREYSRFEKEQQQLNWKQDSNPLYKSAITTTINPRFQEADSPTL
other: rolling cell adhesion in shear flow: increases
